Experimental data from US6974863 (INDIANA UNIVERSITY RESEARCH AND TECHNOLOGY, dated 2005).

Columns and labels:
[1] = biological target: 4-1BB-AP binding sites (putative cell-surface 4-1BB ligand) on mature B cells and macrophages; experiment: competition on A20 cells: 20 µg/ml rs4-1BB (50 fold excess) before 4-1BB-AP at 375 ng/ml as competitor; AP activity
[2] = biological target: T1, human vitronectin (human, UniProt P04004 20-478); experiment: ELISA, human vitronectin immobilized on microtiter plates, AP activity (data not shown)
T1 construct: Bought protein
Description: Chalupny and colleagues (132) have proposed that 4-1BB Rg, a fusion protein consisting of the extracellular domain of 4-1BB and the Fc region of human IgG, bound to the extracellular matrix (ECM). The highest levels of 4-1BB Rg binding was to human vitronectin. In data not shown, an ELISA was performed using 4-1BB-AP and human vitronectin (Yelios Pharmaceuticals/GIBCO-BRL, Grand Island, N.Y.) immobilized at 0.007 μg–10 μg per well on microtiter plates. No binding of 4-1BB-AP based on AP activity was observed. To rule out the possibility that 4-1BB-AP was binding to proteins extrinsically attached to the cell surface (possible extracellular matrix components), B-cell lymphomas were washed in acid conditions prior to the binding assay (115). 4-1BB-AP still bound specifically to mature B-cell lymphomas (data not shown). We are currently determining whether a 4-1BB-ligand specifically expressed on B cells and macrophages exists, and whether 4-1BB-AP may bind to the ECM under particular binding conditions. It is possible that the ECM could facilitate the binding of 4-1BB to a specific cell-surface ligand.

[3] = biological target: T2, mutated p56lck, construct C1 (cys 20-ser) (murine, UniProt P06240 2-509); experiment: coimmunoprecipitation with 53A2, in vitro kinase labeling, HeLa cells
T2 construct: Expressed in HeLa cells with the vaccinia T7 system; also called mutant p56^lck C1
Excerpt: (§1) High levels of coexpression have been achieved previously with this system to facilitate interactions between CD4 and p56^lck. To ensure consistent expression of 4-1BB, the transfected HeLa cells were briefly labeled with [^35S] cysteine before harvest. 4-1BB expression was monitored by immunoprecipitation of ^35S-labeled 4-1BB with 53A2.
(§2) FIGS. 32a–c show an analysis of the association of 4-1BB and p56^lck HeLa cells. […] Lysates were immunoprecipitated with antibodies to p56^lck and 4-1BB and labeled with [γ-^32P] ATP by the in vitro kinase reaction. The positions of p56^lck and 4-1BB are indicated to the right. Total HeLa celll lysates were immunoblotted with antibody top56^lck assay thep56^lck expression. FIGS. 32b and 32c show an immune complex kinase assay. Aliquots of the saline lysates were immunoprecipitated with antip56^lck serum (FIG. 32b) or 53A2 (FIG. 32c) followed by the in vitro kinase reaction with [γ-^32P] ATP as described in the legend to FIG. 30. […] HeLa celis were grown to 80% confluency on 100-mm petri dishes in DMEM containing 10% FBS and antibiotics. Cells were infected with 1×10^8 pfu of vaccinia virus expressing T7 RNA polymerase (136) 30 min before transfection. DNA was transfected in liposomes (Lipofectin, GIBCO, BRL). 15 μg DNA and 50 μl liposome diluted into 5 ml serum-free DMEM were incubated in 12×75 mm polystyrene tubes at room temperature for 15 min. […]

[4] = biological target: T3, mutated p56lck, construct C2 (cys 23-ser) (murine, UniProt P06240 2-509); experiment: as above
T3 construct: Expressed in HeLa cells with the vaccinia T7 system; also called mutant p56^lck C2
Excerpt: as §1, §2

T2 sequence (P06240 other isoform, or with tags, fused parts or gaps limits assumed, change not shown): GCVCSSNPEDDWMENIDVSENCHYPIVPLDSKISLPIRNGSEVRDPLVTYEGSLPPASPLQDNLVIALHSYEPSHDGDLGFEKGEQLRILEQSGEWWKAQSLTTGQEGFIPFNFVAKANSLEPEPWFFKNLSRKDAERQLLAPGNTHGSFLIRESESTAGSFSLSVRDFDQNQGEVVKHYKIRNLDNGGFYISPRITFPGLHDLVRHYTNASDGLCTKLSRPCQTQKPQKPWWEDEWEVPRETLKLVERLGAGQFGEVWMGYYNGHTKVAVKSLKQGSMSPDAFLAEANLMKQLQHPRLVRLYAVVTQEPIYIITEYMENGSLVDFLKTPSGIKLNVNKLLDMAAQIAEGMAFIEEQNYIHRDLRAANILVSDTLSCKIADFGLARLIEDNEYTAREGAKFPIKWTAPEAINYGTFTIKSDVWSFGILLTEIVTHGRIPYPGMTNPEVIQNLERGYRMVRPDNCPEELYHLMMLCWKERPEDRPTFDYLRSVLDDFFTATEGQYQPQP
T3 sequence (P06240 other isoform, or with tags, fused parts or gaps limits assumed, change not shown): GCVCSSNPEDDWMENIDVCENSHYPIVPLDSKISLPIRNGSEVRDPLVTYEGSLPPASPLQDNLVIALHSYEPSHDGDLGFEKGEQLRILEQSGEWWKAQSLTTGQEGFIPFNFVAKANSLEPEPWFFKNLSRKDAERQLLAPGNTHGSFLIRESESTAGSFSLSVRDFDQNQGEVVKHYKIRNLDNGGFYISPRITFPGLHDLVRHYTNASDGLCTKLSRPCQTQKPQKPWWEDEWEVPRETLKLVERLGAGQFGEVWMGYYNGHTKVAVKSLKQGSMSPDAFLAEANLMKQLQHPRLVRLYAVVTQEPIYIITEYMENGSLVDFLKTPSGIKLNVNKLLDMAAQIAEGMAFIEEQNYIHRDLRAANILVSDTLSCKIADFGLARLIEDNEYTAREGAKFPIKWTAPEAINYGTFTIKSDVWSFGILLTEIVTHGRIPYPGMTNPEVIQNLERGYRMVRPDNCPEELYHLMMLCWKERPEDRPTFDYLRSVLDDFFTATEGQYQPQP
T1 sequence (P04004 20-478 limits assumed): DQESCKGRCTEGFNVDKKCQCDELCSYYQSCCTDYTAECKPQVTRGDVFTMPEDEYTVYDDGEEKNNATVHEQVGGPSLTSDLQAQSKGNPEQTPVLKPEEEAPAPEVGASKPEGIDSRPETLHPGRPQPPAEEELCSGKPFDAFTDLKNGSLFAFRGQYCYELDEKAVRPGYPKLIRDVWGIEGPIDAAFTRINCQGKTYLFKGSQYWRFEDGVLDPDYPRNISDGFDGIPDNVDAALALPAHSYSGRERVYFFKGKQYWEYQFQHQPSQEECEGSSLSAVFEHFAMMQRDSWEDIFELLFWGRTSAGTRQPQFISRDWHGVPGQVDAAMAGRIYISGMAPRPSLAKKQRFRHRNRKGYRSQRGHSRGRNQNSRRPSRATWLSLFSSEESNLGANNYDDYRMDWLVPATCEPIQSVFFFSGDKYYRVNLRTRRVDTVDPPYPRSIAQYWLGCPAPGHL

## recombinant soluble 4-1BB protein (extracellular domain of mouse 4-1BB) (from UniProt P20334 24-187) (receptor)
[1]
  percent of 4-1BB-AP binding blocked: 70%

B1: 4-1BB-AP fusion protein (extracellular domain of 4-1BB fused to human placental alkaline phosphatase) (other)
chain: VQNSCDNCQPGTFCRKYNPVCKSCPPSTFSSIGGQPNCNICRVCAGYFRFKKFCSSTHNAECECIEGFHCLGPQCTRCEKDCRPGQELTKQGCKTCSLGTFNDQNGTGVCRPWTNCSLDGRSVLKTGTTEKDVVCGPPVVSFSPSTTISVTPEGGPGGHSLQVL
notes: Signal peptide and entire extracellular domain of 4-1BB up to the first hydrophobic residue of the transmembrane region, joined in frame upstream of AP; secreted by NIH-3T3 transfectants; also called 4-1BB-Alkaline Phosphatase; 85 kDa fusion protein; not shown: human placental alkaline phosphatase as coded in the APtag-1 vector
[2]
  binding result: no binding (tested: 0.007 µg-10 µg per well)

B2: mouse receptor protein 4-1BB (full length) (receptor)
chain: VQNSCDNCQPGTFCRKYNPVCKSCPPSTFSSIGGQPNCNICRVCAGYFRFKKFCSSTHNAECECIEGFHCLGPQCTRCEKDCRPGQELTKQGCKTCSLGTFNDQNGTGVCRPWTNCSLDGRSVLKTGTTEKDVVCGPPVVSFSPSTTISVTPEGGPGGHSLQVLTLFLALTSALLLALIFITLLFSVLKWIRKKFPHIFKQPFKKTTGAAQEEDACSCRCPQEEEGGGGGYEL
notes: Native on T cells (CTLL-R8, CTLL-2, F1, splenic T cells, thymocytes) or recombinant full length in Sf-21 and HeLa cells; also tested in lysates and blots; Seen as 30 kDa monomer, 55 kDa dimer and possibly 110 kDa tetramer; homodimer not proven; also called 4-1BBP; 4-1BBL (full length cDNA construct)
[3]
  binding result: no binding
[4]
  binding result: no binding
